Test results taken from paper PMC6693180.

Target: DTL (UniProt Q9NZJ0)
Assay: co-IP with His tag antibody
Conditions: reference: His-PDCD4 wild type; sites S67

binding against the reference: lost
Substance: PDCD4 (from UniProt Q53EL6) His-PDCD4(S67A)
